Our source for the ISRE Signaling of Transfected 293 Cells Following Class II Cytokine Stimulation (Fold Induction), ISRE-Luc./IL-28R, Zcyto10 125 ng/ml (fold induction) and ISRE Signaling of Transfected 293 Cells Following Class II Cytokine Stimulation (Fold Induction), ISRE-Luc./IL-28R, HuIL10 100 ng/ml (fold induction) values is US7351689.

The target in this assay is human IL-28 receptor on transfected 293 HEK cells (IL-28 receptor alpha subunit with endogenous CRF2-4) (human). Description: cell-based or functional assay.
human IL-28 receptor on transfected 293 HEK cells (IL-28 receptor alpha subunit with endogenous CRF2-4) (human), sequence (Q8IU57 21-520): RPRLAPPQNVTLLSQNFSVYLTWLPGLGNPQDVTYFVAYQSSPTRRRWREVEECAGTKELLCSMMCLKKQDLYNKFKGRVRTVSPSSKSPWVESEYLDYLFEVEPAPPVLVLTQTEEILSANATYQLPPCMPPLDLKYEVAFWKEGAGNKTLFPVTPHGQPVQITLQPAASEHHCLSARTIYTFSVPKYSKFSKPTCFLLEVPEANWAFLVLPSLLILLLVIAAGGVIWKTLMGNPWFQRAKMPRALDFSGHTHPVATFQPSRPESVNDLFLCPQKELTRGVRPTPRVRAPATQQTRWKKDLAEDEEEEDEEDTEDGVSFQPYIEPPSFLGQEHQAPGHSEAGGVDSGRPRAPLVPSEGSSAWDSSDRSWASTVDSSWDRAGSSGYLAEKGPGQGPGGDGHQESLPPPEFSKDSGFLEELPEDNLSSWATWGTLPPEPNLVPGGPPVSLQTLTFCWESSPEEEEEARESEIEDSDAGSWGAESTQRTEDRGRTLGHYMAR

As for “zcyto10 (from UniProt Q9NYY1 25-176) (ligand)”, the ISRE Signaling of Transfected 293 Cells Following Class II Cytokine Stimulation (Fold Induction), ISRE-Luc./IL-28R, Zcyto10 125 ng/ml (fold induction) was determined as 1.
In the case of “huIL10 (from UniProt P22301 19-178) (ligand)”, the ISRE Signaling of Transfected 293 Cells Following Class II Cytokine Stimulation (Fold Induction), ISRE-Luc./IL-28R, HuIL10 100 ng/ml (fold induction) came out at 0.5.
